{"source": "paper PMC3409183", "test_system": "ribosomal protein L5 (TbL5) (Trypanosoma brucei)", "assay": "EMSA", "conditions": "EMSA: 10 mM Tris-HCl pH 7.4, 150 mM KCl, 0.1 mM DTT, 0.1 mM EDTA, 0.1% NP-40, 20 min room temperature; filter binding: 10 mM Tris pH 7.4, 1 mM EDTA, 100 mM …", "data": [{"substance": "T. brucei 5S rRNA", "values": [{"measurement": "Kd", "value": 12, "unit": "nM"}]}]}
